Measurements: publication PMC6238537 (Life Science Alliance, 2018)

Target: T1, recombinant human laminin-511 (human, UniProt O15230 36-3695; P07942 22-1786; P11047 34-1609)
T1 construct: the FLAG tag stands just after the N-terminal signal peptide cleavage site; αβγ heterotrimer; also called LM511; not shown: FLAG, N-terminal, kept; copies: + +
Assay: ELISA; solid-phase binding assay: 96-well plates coated with laminins at 5 nM overnight at 4°C, blocked with 3% BSA; 30 nM integrins for 3 h at room temperature with 1 mM Mn2+; bound integrins detected by biotinylated anti-Velcro pAb and HRP-streptavidin (absorbance at 490 nm)
Settings: both partners purified

| binding result | Binder |
| --- | --- |
| binds | recombinant integrin αvβ3 (receptor, human, integrin αv subunit, human, extracellular domain; integrin β3 subunit, human, extracellular domain; truncated soluble heterodimer; vectors from Dr. Junichi Takagi (Takagi et al, 2001, 2002a, b); Purification on ANTI-FLAG gel implies a FLAG tag) chain 1: FNLDVDSPAEYSGPEGSYFGFAVDFFVPSASSRMFLLVGAPKANTTQPGIVEGGQVLKCDWSSTRRCQPIEFDATGNRDYAKDDPLEFKSHQWFGASVRSKQDKILACAPLYHWRTEMKQEREPVGTCFLQDGTKTVEYAPCRSQDIDADGQGFCQGGFSIDFTKADRVLLGGPGSFYWQGQLISDQVAEIVSKYDPNVYSIKYNNQLATRTAQAIFDDSYLGYSVAVGDFNGDGIDDFVSGVPRAARTLGMVYIYDGKNMSSLYNFTGEQMAAYFGFSVAATDINGDDYADVFIGAPLFMDRGSDGKLQEVGQVSVSLQRASGDFQTTKLNGFEVFARFGSAIAPLGDLDQDGFNDIAIAAPYGGEDKKGIVYIFNGRSTGLNAVPSQILEGQWAARSMPPSFGYSMKGATDIDKNGYPDLIVGAFGVDRAILYRARPVITVNAGLEVYPSILNQDNKTCSLPGTALKVSCFNVRFCLKADGKGVLPRKLNFQVELLLDKLKQKGAIRRALFLYSRSPSHSKNMTISRGGLMQCEELIAYLRDESEFRDKLTPITIFMEYRLDYRTAADTTGLQPILNQFTPANISRQAHILLDCGEDNVCKPKLEVSVDSDQKKIYIGDDNPLTLIVKAQNQGEGAYEAELIVSIPLQADFIGVVRNNEALARLSCAFKTENQTRQVVCDLGNPMKAGTQLLAGLRFSVHQQSEMDTSVKFDLQIQSSNLFDKVSPVVSHKVDLAVLAAVEIRGVSSPDHVFLPIPNWEHKENPETEEDVGPVVQHIYELRNNGPSSFSKAMLHLQWPYKYNNNTLLYILHYDIDGPMNCTSDMEINPLRIKISSLQTTEKNDTVAGQGERDHLITKRDLALSEGDIHTLGCGVAQCLKIVCQVGRLDRGKSAILYVKSLLWTETFMNKENQNHSYSLKSSASFNVIEFPYKNLPIEDITNSTLVTTNVTWGIQPAPMPV chain 2: GPNICTTRGVSSCQQCLAVSPMCAWCSDEALPLGSPRCDLKENLLKDNCAPESIEFPVSEARVLEDRPLSDKGSGDSSQVTQVSPQRIALRLRPDDSKNFSIQVRQVEDYPVDIYYLMDLSYSMKDDLWSIQNLGTKLATQMRKLTSNLRIGFGAFVDKPVSPYMYISPPEALENPCYDMKTTCLPMFGYKHVLTLTDQVTRFNEEVKKQSVSRNRDAPEGGFDAIMQATVCDEKIGWRNDASHLLVFTTDAKTHIALDGRLAGIVQPNDGQCHVGSDNHYSASTTMDYPSLGLMTEKLSQKNINLIFAVTENVVNLYQNYSELIPGTTVGVLSMDSSNVLQLIVDAYGKIRSKVELEVRDLPEELSLSFNATCLNNEVIPGLKSCMGLKIGDTVSFSIEAKVRGCPQEKEKSFTIKPVGFKDSLIVQVTFDCDCACQAQAEPNSHRCNNGNGTFECGVCRCGPGWLGSQCECSEEDYRPSQQDECSPREGQPVCSQRGECLCGQCVCHSSDFGKITGKYCECDDFSCVRYKGEMCSGHGQCSCGDCLCDSDWTGYYCNCTTRTDTCMSSNGLLCSGRGKCECGSCVCIQPGSYGDTCEKCPTCPDACTFKKECVECKKFDRGALHDENTCNRYCRDEIESVKELKDTGKDAVNCTYKNEDDCVVRFQYYEDSSGKSILYVVEEPECPKGPD |
| binds | recombinant integrin αvβ5 (receptor, human, integrin αv subunit, human, extracellular domain; integrin β5 subunit, human, extracellular domain; cDNA amplified from RNA of T98G human glioblastoma cells; truncated soluble heterodimer; Purification on ANTI-FLAG gel implies a FLAG tag) chain 1: FNLDVDSPAEYSGPEGSYFGFAVDFFVPSASSRMFLLVGAPKANTTQPGIVEGGQVLKCDWSSTRRCQPIEFDATGNRDYAKDDPLEFKSHQWFGASVRSKQDKILACAPLYHWRTEMKQEREPVGTCFLQDGTKTVEYAPCRSQDIDADGQGFCQGGFSIDFTKADRVLLGGPGSFYWQGQLISDQVAEIVSKYDPNVYSIKYNNQLATRTAQAIFDDSYLGYSVAVGDFNGDGIDDFVSGVPRAARTLGMVYIYDGKNMSSLYNFTGEQMAAYFGFSVAATDINGDDYADVFIGAPLFMDRGSDGKLQEVGQVSVSLQRASGDFQTTKLNGFEVFARFGSAIAPLGDLDQDGFNDIAIAAPYGGEDKKGIVYIFNGRSTGLNAVPSQILEGQWAARSMPPSFGYSMKGATDIDKNGYPDLIVGAFGVDRAILYRARPVITVNAGLEVYPSILNQDNKTCSLPGTALKVSCFNVRFCLKADGKGVLPRKLNFQVELLLDKLKQKGAIRRALFLYSRSPSHSKNMTISRGGLMQCEELIAYLRDESEFRDKLTPITIFMEYRLDYRTAADTTGLQPILNQFTPANISRQAHILLDCGEDNVCKPKLEVSVDSDQKKIYIGDDNPLTLIVKAQNQGEGAYEAELIVSIPLQADFIGVVRNNEALARLSCAFKTENQTRQVVCDLGNPMKAGTQLLAGLRFSVHQQSEMDTSVKFDLQIQSSNLFDKVSPVVSHKVDLAVLAAVEIRGVSSPDHVFLPIPNWEHKENPETEEDVGPVVQHIYELRNNGPSSFSKAMLHLQWPYKYNNNTLLYILHYDIDGPMNCTSDMEINPLRIKISSLQTTEKNDTVAGQGERDHLITKRDLALSEGDIHTLGCGVAQCLKIVCQVGRLDRGKSAILYVKSLLWTETFMNKENQNHSYSLKSSASFNVIEFPYKNLPIEDITNSTLVTTNVTWGIQPAPMPV chain 2: GLNICTSGSATSCEECLLIHPKCAWCSKEDFGSPRSITSRCDLRANLVKNGCGGEIESPASSFHVLRSLPLSSKGSGSAGWDVIQMTPQEIAVNLRPGDKTTFQLQVRQVEDYPVDLYYLMDLSLSMKDDLDNIRSLGTKLAEEMRKLTSNFRLGFGSFVDKDISPFSYTAPRYQTNPCIGYKLFPNCVPSFGFRHLLPLTDRVDSFNEEVRKQRVSRNRDAPEGGFDAVLQAAVCKEKIGWRKDALHLLVFTTDDVPHIALDGKLGGLVQPHDGQCHLNEANEYTASNQMDYPSLALLGEKLAENNINLIFAVTKNHYMLYKNFTALIPGTTVEILDGDSKNIIQLIINAYNSIRSKVELSVWDQPEDLNLFFTATCQDGVSYPGQRKCEGLKIGDTASFEVSLEARSCPSRHTEHVFALRPVGFRDSLEVGVTYNCTCGCSVGLEPNSARCNGSGTYVCGLCECSPGYLGTRCECQDGENQSVYQNLCREAEGKPLCSGRGDCSCNQCSCFESEFGKIYGPFCECDNFSCARNKGVLCSGHGECHCGECKCHAGYIGDNCNCSTDISTCRGRDGQICSERGHCLCGQCQCTEPGAFGEMCEKCPTCPDACSTKRDCVECLLLHSGKPDNQTCHSLCRDEVITWVDTIVKDDQEAVLCFYKTAKDCVMMFTYVELPSGKSNLTVLREPECGNTPN |
